Test results: paper PMC4245977 (Biochemistry, 2014)

Biological target: the molecule itself
Test: crystal structure

B1: AACC (C136A/C141A) double mutant of the Tn501 MerA (mercuric reductase) catalytic core (domain or fragment, Pseudomonas aeruginosa (Tn501))
chain: EPPVQVAVIGSGGAAMAAALKAVEQGAQVTLIERGTIGGTAVNVGAVPSKIMIRAAHIAHLRRESPFDGGIAATVPTIDRSKLLAQQQARVDELRHAKYEGILGGNPAITVVHGEARFKDDQSLTVRLNEGGERVVMFDRCLVATGASPAVPPIPGLKESPYWTSTEALASDTIPERLAVIGSSVVALELAQAFARLGSKVTVLARNTLFFREDPAIGEAVTAAFRAEGIEVLEHTQASQVAHMDGEFVLTTTHGELRADKLLVATGRTPNTRSLALDAAGVTVNAQGAIVIDQGMRTSNPNIYAAGDCTDQPQFVYVAAAAGTRAAINMTGGDAALDLTAMPAVVFTDPQVATVGYSEAEAHHDGIETDSRTLTLDNVPRALANFDTRGFIKLVIEEGSHRLIGVQAVAPEAGELIQTAALAIRNRMTVQELADQLFPYLTMVEGLKLAAQTFNKDVKQLSCCAG
Does B1 bind?
Result: binds
